The record followed here is US20210009706A1 (JIANGSU HENGRUI MEDICINE, published 2021).

Substitutions are numbered along the chain they refer to.

Assay [1] has as its target T1, Human CD27-HisFc (human, UniProt P26842 21-192).
T1 construct: Bought reagent; also called CD27-HisFc (Sino Biological #10039-H03H); human CD27-HisFc fusion protein; not shown: His tag and Fc
T1 sequence (looked up): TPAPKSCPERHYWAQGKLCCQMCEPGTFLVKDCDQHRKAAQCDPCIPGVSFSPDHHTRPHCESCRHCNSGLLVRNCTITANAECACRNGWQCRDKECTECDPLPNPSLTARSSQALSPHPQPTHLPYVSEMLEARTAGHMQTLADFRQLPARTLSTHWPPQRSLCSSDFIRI
Put plainly: BLI (Octet RED96), CD27-HisFc captured on AHC sensor, Fab in solution, 1:1 Langmuir fit. The text has this: The antibody Fab fragment of each unique sequence with addition of histidine tag at its C-terminus was overexpressed using E. coli expression system, and then purified by Ni-NTA affinity resin. […] The collected data was processed by Data Acquisition 7.1 software and fitted to a 1:1 Langmuir model curve. The antibody mAb077 with the best binding capacity was obtained by screening for further analysis and development experiments.
On the technique in general: Biolayer interferometry detects binding as a change in optical thickness at a sensor tip.

The target of assay [2] is T2, human CD27-his antigen (Yiqiao Shenzhou #10039-H08H) (human, UniProt P26842 21-192).
T2 construct: Bought reagent; also called huCD27-his (Sino Biological); not shown: His tag
T2 sequence (looked up): T1 sequence (looked up)
The assay can be described thus: SPR (Biacore T200), antibody captured on protein A chip, CD27-his as analyte, 1:1 Langmuir fit. The text has this:
The protein A biosensor chip was used to affinity capture the antibody molecule to be tested, and then the human CD27-his antigen (Yiqiao Shenzhou #10039-H08H) of various gradient concentrations was flowed on the surface of the chip, and the reaction signal was detected in real time with the Biacore T200 instrument to obtain the association and dissociation curve. After the dissociation of each experimental cycle was completed, the biosensor chip was washed and regenerated with glycine-hydrochloric acid regeneration solution (pH 1.5). BIAevaluation version 4.1 and GE software were used to fit the data with a (1:1) Langmuir model, the affinity values were obtained as shown in the table below. The affinity of the mutant molecule 077N74T is slightly higher than that of the original mAb077 molecule but there is no significant difference.
(In general: In SPR one partner is held on a chip, and binding of the other changes the refractive index at the surface.)

For assay [3], the target named is Macaca CD27-Fc (Macaca). Put plainly: BLI (Octet RED96), 1:1 Langmuir fit; format for IgG not described.
In assay [4] the target is T1, Human CD27-HisFc. The description is as above.
Assay [5] addresses T3, Murine CD27-HisFc (murine, UniProt P41272 24-182, limits assumed).
T3 construct: not shown: His tag and Fc
T3 sequence (looked up): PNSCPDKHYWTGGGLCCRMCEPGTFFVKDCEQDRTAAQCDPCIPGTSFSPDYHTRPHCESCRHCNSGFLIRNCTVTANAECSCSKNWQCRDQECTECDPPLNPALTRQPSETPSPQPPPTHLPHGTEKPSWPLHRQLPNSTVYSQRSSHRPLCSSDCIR
The description is as above.

Assay [6] addresses T4, Human CD27-His (human, UniProt P26842 21-192).
T4 construct: also called CD27-His (Sino Biological #10039-H08B1); not shown: His tag
T4 sequence (looked up): T1 sequence (looked up)
Described as above.

B1: mAb077-Fab (Fab, V domains shown)
VH: EVQLVESGGGLVQPGGSLRLSCAASGFTFSGYGIHWVRQAPGKGLEWIGWINPNRGSTKYAQKFQGRVTISRDNSKNTLYLQLNSLRAEDTAVYYCARDPGYTWYFDVWGQGTLVTVSS
VL: DIQLTQSPSSLSASVGDRVTITCRASQDISSDLAWYQQKPGKAPKLLIYAASTLQSGVPSRFSGSGSGTDFTLTISSLQPEDFATYYCQQRDAWPPTFGQGTKVEIK
notes: only the variable domains are tied to the Fab; also called mAb077 Fab fragment; mAb77
As to B1, in assay [1], the Kd (in general, the free concentration of one partner at which half of the binding sites on the other are occupied at equilibrium, for simple one-to-one binding) is 4.08 nM; the koff – broadly, the rate constant with which the complex falls apart – was 0.00121 s⁻¹; the kon (commonly a measure of how fast the partners come together) turned out to be 296000 M⁻¹ s⁻¹.

B2: 077N74T (antibody, V domains shown)
VH: B1 VH with N74T
VL: DIQLTQSPSSLSASVGDRVTITCRASQDISSDLAWYQQKPGKAPKLLIYAASTLQSGVPSRFSGSGSGTDFTLTISSLQPEDFATYYCQQRDAWPPTFGQGTKVEIKR
notes: The light chain is the same as in mAb077; also called mutant molecule 077N74T; 077N74T antibody
Turning to B2, in assay [2], the Kd worked out at 0.261 nM, the koff was found to be 6.75e-05 s⁻¹ and the kon is 259000 M⁻¹ s⁻¹.

B3: mAb077-IgG (antibody, V domains shown)
VH: B1 VH
VL: B2 VL
notes: also called mAb77
Consider B3, for which the Kd came out at 0.562 nM in assay [3], 0.137 nM in assay [4], 0.0304 nM in assay [5] and 0.335 nM in assay [2]. Further, the koff in assay [3] came to 4.26e-05 s⁻¹; in assay [4], 2.17e-05 s⁻¹; in assay [5], 1.33e-05 s⁻¹; in assay [2], 8.34e-05 s⁻¹. Moreover, the kon in assay [3] amounted to 75800 M⁻¹ s⁻¹; in assay [4] it was 158000 M⁻¹ s⁻¹; in assay [5], 438000 M⁻¹ s⁻¹; in assay [2], 249000 M⁻¹ s⁻¹.

B4: 1F5-IgG (antibody, V domains shown)
VH: QVQLVESGGGVVQPGRSLRLSCAASGFTFSSYDMHWVRQAPGKGLEWVAVIWYDGSNKYYADSVKGRFTISRDNSKNTLYLQMNSLRAEDTAVYYCARGSGNWGFFDYWGQGTLVTVSS
VL: DIQMTQSPSSLSASVGDRVTITCRASQGISRWLAWYQQKPEKAPKSLIYAASSLQSGVPSRFSGSGSGTDFTLTISSLQPEDFATYYCQQYNTYPRTFGQGTKVEIK
In assay [6], B4 gave a dissociation constant (Kd) of 1.39 nM, a koff of 9.15e-05 s⁻¹ and an on-rate (kon) of 65800 M⁻¹ s⁻¹. In assay [3], the Kd came out at 2.13 nM, the koff amounted to 0.000243 s⁻¹ and the kon was determined as 114000 M⁻¹ s⁻¹.
